Primed or numbered codes have the meaning given here. Where no end group is shown, it is not given here. [ ]: non-standard residue; d: D form. The star is where a group is joined. PEG 40 kDa″ = polyethylene glycol of 40 kDa covalently attached to the side chain; PEG 40 kDa = PEG (40 kDa) covalently attached to Cys; Met(O) = CS(=O)CC[C@H](N)C(=O)O; Myristoyl = CCCCCCCCCCCCCC(=O)*; Nle = CCCC[C@H](N)C(=O)O; Orn = NCCC[C@H](N)C(=O)O; Dab = NCC[C@H](N)C(=O)O; Dap = NC[C@H](N)C(=O)O; Aib = CC(C)(N)C(=O)O; Carbamoyl = NC(=O)*; Acm = CC(=O)NC*
What was measured:
Test in all cases: cell-based or functional assay
glucagon receptor [1] = molecular target: T1, glucagon receptor (UniProt P47871 26-477, limits assumed)
T1 sequence (P47871 26-477 limits assumed): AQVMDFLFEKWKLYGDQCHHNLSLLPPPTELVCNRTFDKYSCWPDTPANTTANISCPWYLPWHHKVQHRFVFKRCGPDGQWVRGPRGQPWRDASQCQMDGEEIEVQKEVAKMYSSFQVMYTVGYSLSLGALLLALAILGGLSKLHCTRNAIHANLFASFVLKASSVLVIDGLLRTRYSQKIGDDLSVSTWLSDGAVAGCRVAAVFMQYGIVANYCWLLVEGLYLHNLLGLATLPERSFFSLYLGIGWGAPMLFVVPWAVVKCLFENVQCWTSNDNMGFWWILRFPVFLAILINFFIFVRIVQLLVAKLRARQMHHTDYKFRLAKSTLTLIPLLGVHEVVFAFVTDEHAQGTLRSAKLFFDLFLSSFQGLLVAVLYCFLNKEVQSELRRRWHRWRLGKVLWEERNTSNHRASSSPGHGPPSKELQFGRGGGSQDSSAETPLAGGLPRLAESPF

GLP-1 receptor [2] = molecular target: GLP-1 receptor (UniProt P43220 24-463, limits assumed)
GIP receptor [3] = molecular target: T2, GIP receptor (UniProt P48546 22-466)
T2 sequence (looked up): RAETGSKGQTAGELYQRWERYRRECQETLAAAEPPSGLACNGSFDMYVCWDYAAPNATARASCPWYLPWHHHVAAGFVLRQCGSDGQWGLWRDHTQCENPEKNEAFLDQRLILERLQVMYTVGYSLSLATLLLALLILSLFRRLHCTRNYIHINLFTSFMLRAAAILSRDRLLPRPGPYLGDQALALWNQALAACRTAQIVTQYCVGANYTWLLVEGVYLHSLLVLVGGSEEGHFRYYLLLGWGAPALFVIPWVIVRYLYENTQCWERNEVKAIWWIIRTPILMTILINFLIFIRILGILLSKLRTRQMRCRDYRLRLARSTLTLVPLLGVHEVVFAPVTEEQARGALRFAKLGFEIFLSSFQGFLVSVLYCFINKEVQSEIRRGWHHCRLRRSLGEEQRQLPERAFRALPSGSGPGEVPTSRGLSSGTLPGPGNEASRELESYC

glucagon receptor [4] = molecular target: T1, glucagon receptor; remark: listed apart in the source
glucagon receptor [5] = molecular target: glucagon receptor (UniProt P47871 26-477, limits assumed); remark: listed apart in the source
Target sequence in this assay (P47871 26-477 limits assumed): as the sequence (P47871 26-477 limits assumed) above

GLP-1 receptor [6] = molecular target: GLP-1 receptor (UniProt P43220 24-463, limits assumed); remark: listed apart in the source
GIP receptor [7] = molecular target: T3, GIP receptor (UniProt P48546 22-466); remark: listed apart in the source
T3 sequence (looked up): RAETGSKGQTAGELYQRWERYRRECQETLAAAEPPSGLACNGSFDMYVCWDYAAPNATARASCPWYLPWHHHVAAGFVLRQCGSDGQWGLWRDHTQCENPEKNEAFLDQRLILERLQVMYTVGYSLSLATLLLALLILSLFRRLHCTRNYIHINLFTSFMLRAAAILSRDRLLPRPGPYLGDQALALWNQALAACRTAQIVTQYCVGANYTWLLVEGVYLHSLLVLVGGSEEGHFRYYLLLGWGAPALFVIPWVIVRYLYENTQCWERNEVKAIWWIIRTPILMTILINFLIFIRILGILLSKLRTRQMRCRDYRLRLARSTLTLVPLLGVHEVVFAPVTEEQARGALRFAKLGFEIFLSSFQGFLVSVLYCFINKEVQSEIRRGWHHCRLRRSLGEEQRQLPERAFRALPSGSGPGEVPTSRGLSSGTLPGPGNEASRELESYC

Y[Aib]EGTFTSDK(Myristoyl)SIYLDKQAA[Aib]EFVC(PEG 40 kDa)WLLAGGPSSGAPPPS-NH2 [mt-341]
EC50, nM; Glucagon Receptor (glucagon receptor [1]): 499 nM
relative activity; Glucagon Receptor (glucagon receptor [1]): 0.01%
EC50, nM; GLP-1 Receptor (GLP-1 receptor [2]): 0.0636 nM
relative activity; GLP-1 Receptor (GLP-1 receptor [2]): 14.6%
EC50, nM; GIP Receptor (GIP receptor [3]): 0.0566 nM
relative activity; GIP Receptor (GIP receptor [3]): 27.4%

HSQGTFTSDYSKYLDTRRAAEFVAWL[Nle]DE [Peptide J backbone with Q at position 3]
% activity* (glucagon receptor [4]): 25%

HSC(Acm)GTFTSDYSKYLDTRRAAEFVAWL[Nle]DE [Peptide J backbone with C(Acm) at position 3]
% activity* (glucagon receptor [4]): 33%

HS[Dab](Ac)GTFTSDYSKYLDTRRAAEFVAWL[Nle]DE [Peptide J backbone with Dab(Ac) at position 3]
% activity* (glucagon receptor [4]): 19%
EC50 at Glucagon Receptor (glucagon receptor [4]): 0.31 nM

HS[Dap](Carbamoyl)GTFTSDYSKYLDTRRAAEFVAWL[Nle]DE [Peptide J backbone with Dap(urea) at position 3]
% activity* (glucagon receptor [4]): 13%
EC50 at Glucagon Receptor (glucagon receptor [4]): 0.48 nM

HS[Met(O)]GTFTSDYSKYLDTRRAAEFVAWL[Nle]DE [Peptide J backbone with M(O) at position 3]
% activity* (glucagon receptor [4]): 7%
EC50 at Glucagon Receptor (glucagon receptor [4]): 0.91 nM

HS[Orn](Ac)GTFTSDYSKYLDTRRAAEFVAWL[Nle]DE [Peptide J backbone with Orn(Ac) at position 3]
% activity* (glucagon receptor [4]): 7%
EC50 at Glucagon Receptor (glucagon receptor [4]): 0.92 nM

HSQGTFTSDYSKYLD[Aib]RRAADFVAWLMDE [Peptide K backbone with Q at position 3]
% activity* (glucagon receptor [4]): 15%

HS[Dab](Ac)GTFTSDYSKYLD[Aib]RRAADFVAWLMDE [Peptide K backbone with Dab(Ac) at position 3]
% activity* (glucagon receptor [4]): 86%
EC50 at Glucagon Receptor (glucagon receptor [4]): 0.07 nM

B1: mt-250 (peptide)
peptide: Y[Aib]QGTFTSDYSIYLD[Aib]QAA[Aib]EFVNWLLAGGPSSGAPPPSC-NH2
modifications: N-terminus assumed
SMILES: CC[C@H](C)[C@H](NC(=O)[C@H](CO)NC(=O)[C@H](Cc1ccc(O)cc1)NC(=O)[C@H](CC(=O)O)NC(=O)[C@H](CO)NC(=O)[C@@H](NC(=O)[C@H](Cc1ccccc1)NC(=O)[C@@H](NC(=O)CNC(=O)[C@H](CCC(N)=O)NC(=O)C(C)(C)NC(=O)[C@@H](N)Cc1ccc(O)cc1)[C@@H](C)O)[C@@H](C)O)C(=O)N[C@@H](Cc1ccc(O)cc1)C(=O)N[C@@H](CC(C)C)C(=O)N[C@@H](CC(=O)O)C(=O)NC(C)(C)C(=O)N[C@@H](CCC(N)=O)C(=O)N[C@@H](C)C(=O)N[C@@H](C)C(=O)NC(C)(C)C(=O)N[C@@H](CCC(=O)O)C(=O)N[C@@H](Cc1ccccc1)C(=O)N[C@H](C(=O)N[C@@H](CC(N)=O)C(=O)N[C@@H](Cc1c[nH]c2ccccc12)C(=O)N[C@@H](CC(C)C)C(=O)N[C@@H](CC(C)C)C(=O)N[C@@H](C)C(=O)NCC(=O)NCC(=O)N1CCC[C@H]1C(=O)N[C@@H](CO)C(=O)N[C@@H](CO)C(=O)NCC(=O)N[C@@H](C)C(=O)N1CCC[C@H]1C(=O)N1CCC[C@H]1C(=O)N1CCC[C@H]1C(=O)N[C@@H](CO)C(=O)N[C@@H](CS)C(N)=O)C(C)C
EC50 (glucagon receptor [5]): 0.667 nM
relative activity (glucagon receptor [5]): 6.3%
EC50 (GLP-1 receptor [6]): 0.033 nM
relative activity (GLP-1 receptor [6]): 63.6%
EC50 (GIP receptor [7]): 0.062 nM
relative activity (GIP receptor [7]): 30.6%

B2: mt-251 (peptide)
peptide: Y[Aib]QGTFTSDYSIYLDEQAA[Aib]EFVNWLLAGGPSSGAPPPSC-NH2
modifications: N-terminus assumed
SMILES: CC[C@H](C)[C@H](NC(=O)[C@H](CO)NC(=O)[C@H](Cc1ccc(O)cc1)NC(=O)[C@H](CC(=O)O)NC(=O)[C@H](CO)NC(=O)[C@@H](NC(=O)[C@H](Cc1ccccc1)NC(=O)[C@@H](NC(=O)CNC(=O)[C@H](CCC(N)=O)NC(=O)C(C)(C)NC(=O)[C@@H](N)Cc1ccc(O)cc1)[C@@H](C)O)[C@@H](C)O)C(=O)N[C@@H](Cc1ccc(O)cc1)C(=O)N[C@@H](CC(C)C)C(=O)N[C@@H](CC(=O)O)C(=O)N[C@@H](CCC(=O)O)C(=O)N[C@@H](CCC(N)=O)C(=O)N[C@@H](C)C(=O)N[C@@H](C)C(=O)NC(C)(C)C(=O)N[C@@H](CCC(=O)O)C(=O)N[C@@H](Cc1ccccc1)C(=O)N[C@H](C(=O)N[C@@H](CC(N)=O)C(=O)N[C@@H](Cc1c[nH]c2ccccc12)C(=O)N[C@@H](CC(C)C)C(=O)N[C@@H](CC(C)C)C(=O)N[C@@H](C)C(=O)NCC(=O)NCC(=O)N1CCC[C@H]1C(=O)N[C@@H](CO)C(=O)N[C@@H](CO)C(=O)NCC(=O)N[C@@H](C)C(=O)N1CCC[C@H]1C(=O)N1CCC[C@H]1C(=O)N1CCC[C@H]1C(=O)N[C@@H](CO)C(=O)N[C@@H](CS)C(N)=O)C(C)C
EC50 (glucagon receptor [5]): 2.76 nM
relative activity (glucagon receptor [5]): 1.52%
EC50 (GLP-1 receptor [6]): 0.015 nM
relative activity (GLP-1 receptor [6]): 140%
EC50 (GIP receptor [7]): 0.033 nM
relative activity (GIP receptor [7]): 57.6%

B3: mt-252 (peptide)
peptide: Y[Aib]QGTFTSDYSIYLDKQAA[Aib]EFVNWLLAGGPSSGAPPPSC-NH2
modifications: N-terminus assumed
SMILES: CC[C@H](C)[C@H](NC(=O)[C@H](CO)NC(=O)[C@H](Cc1ccc(O)cc1)NC(=O)[C@H](CC(=O)O)NC(=O)[C@H](CO)NC(=O)[C@@H](NC(=O)[C@H](Cc1ccccc1)NC(=O)[C@@H](NC(=O)CNC(=O)[C@H](CCC(N)=O)NC(=O)C(C)(C)NC(=O)[C@@H](N)Cc1ccc(O)cc1)[C@@H](C)O)[C@@H](C)O)C(=O)N[C@@H](Cc1ccc(O)cc1)C(=O)N[C@@H](CC(C)C)C(=O)N[C@@H](CC(=O)O)C(=O)N[C@@H](CCCCN)C(=O)N[C@@H](CCC(N)=O)C(=O)N[C@@H](C)C(=O)N[C@@H](C)C(=O)NC(C)(C)C(=O)N[C@@H](CCC(=O)O)C(=O)N[C@@H](Cc1ccccc1)C(=O)N[C@H](C(=O)N[C@@H](CC(N)=O)C(=O)N[C@@H](Cc1c[nH]c2ccccc12)C(=O)N[C@@H](CC(C)C)C(=O)N[C@@H](CC(C)C)C(=O)N[C@@H](C)C(=O)NCC(=O)NCC(=O)N1CCC[C@H]1C(=O)N[C@@H](CO)C(=O)N[C@@H](CO)C(=O)NCC(=O)N[C@@H](C)C(=O)N1CCC[C@H]1C(=O)N1CCC[C@H]1C(=O)N1CCC[C@H]1C(=O)N[C@@H](CO)C(=O)N[C@@H](CS)C(N)=O)C(C)C
EC50 (glucagon receptor [5]): 0.319 nM
relative activity (glucagon receptor [5]): 13.2%
EC50 (GLP-1 receptor [6]): 0.018 nM
relative activity (GLP-1 receptor [6]): 117%
EC50 (GIP receptor [7]): 0.013 nM
relative activity (GIP receptor [7]): 146%

Y[Aib]QGTFTSDYSIYLDKQAA[Aib]EFVNWLLAGGPSSGAPPPSC(PEG 40 kDa″)-NH2 [mt-255]
EC50 (glucagon receptor [5]): 5.46 nM
relative activity (glucagon receptor [5]): 2.45%
EC50 (GLP-1 receptor [6]): 0.018 nM
relative activity (GLP-1 receptor [6]): 117%
EC50 (GIP receptor [7]): 0.013 nM
relative activity (GIP receptor [7]): 146%

B4: mt-258 (peptide)
peptide: Y[Aib]QGTFTSDYSIYLDEQAA[Aib]EFVCWLLAG-NH2
modifications: N-terminus assumed
SMILES: CC[C@H](C)[C@H](NC(=O)[C@H](CO)NC(=O)[C@H](Cc1ccc(O)cc1)NC(=O)[C@H](CC(=O)O)NC(=O)[C@H](CO)NC(=O)[C@@H](NC(=O)[C@H](Cc1ccccc1)NC(=O)[C@@H](NC(=O)CNC(=O)[C@H](CCC(N)=O)NC(=O)C(C)(C)NC(=O)[C@@H](N)Cc1ccc(O)cc1)[C@@H](C)O)[C@@H](C)O)C(=O)N[C@@H](Cc1ccc(O)cc1)C(=O)N[C@@H](CC(C)C)C(=O)N[C@@H](CC(=O)O)C(=O)N[C@@H](CCC(=O)O)C(=O)N[C@@H](CCC(N)=O)C(=O)N[C@@H](C)C(=O)N[C@@H](C)C(=O)NC(C)(C)C(=O)N[C@@H](CCC(=O)O)C(=O)N[C@@H](Cc1ccccc1)C(=O)N[C@H](C(=O)N[C@@H](CS)C(=O)N[C@@H](Cc1c[nH]c2ccccc12)C(=O)N[C@@H](CC(C)C)C(=O)N[C@@H](CC(C)C)C(=O)N[C@@H](C)C(=O)NCC(N)=O)C(C)C
EC50 (glucagon receptor [5]): 0.487 nM
relative activity (glucagon receptor [5]): 14.1%
EC50 (GLP-1 receptor [6]): 0.0202 nM
relative activity (GLP-1 receptor [6]): 58.9%
EC50 (GIP receptor [7]): 0.057 nM
relative activity (GIP receptor [7]): 16.8%

B5: mt-259 (peptide)
peptide: Y[Aib]QGTFTSDYSIYLDSQAA[Aib]EFVCWLLAG-NH2
modifications: N-terminus assumed
SMILES: CC[C@H](C)[C@H](NC(=O)[C@H](CO)NC(=O)[C@H](Cc1ccc(O)cc1)NC(=O)[C@H](CC(=O)O)NC(=O)[C@H](CO)NC(=O)[C@@H](NC(=O)[C@H](Cc1ccccc1)NC(=O)[C@@H](NC(=O)CNC(=O)[C@H](CCC(N)=O)NC(=O)C(C)(C)NC(=O)[C@@H](N)Cc1ccc(O)cc1)[C@@H](C)O)[C@@H](C)O)C(=O)N[C@@H](Cc1ccc(O)cc1)C(=O)N[C@@H](CC(C)C)C(=O)N[C@@H](CC(=O)O)C(=O)N[C@@H](CO)C(=O)N[C@@H](CCC(N)=O)C(=O)N[C@@H](C)C(=O)N[C@@H](C)C(=O)NC(C)(C)C(=O)N[C@@H](CCC(=O)O)C(=O)N[C@@H](Cc1ccccc1)C(=O)N[C@H](C(=O)N[C@@H](CS)C(=O)N[C@@H](Cc1c[nH]c2ccccc12)C(=O)N[C@@H](CC(C)C)C(=O)N[C@@H](CC(C)C)C(=O)N[C@@H](C)C(=O)NCC(N)=O)C(C)C
EC50 (glucagon receptor [5]): 0.297 nM
relative activity (glucagon receptor [5]): 23.1%
EC50 (GLP-1 receptor [6]): 0.0189 nM
relative activity (GLP-1 receptor [6]): 63%
EC50 (GIP receptor [7]): 0.0799 nM
relative activity (GIP receptor [7]): 12%
